Among the data in patent US20220306729A1 are EC50 values, retold here.

Where a chain is given by its changes, count along the chain named.

B1: Z062 (BRA112_70) (antibody, V domains shown)
VH: EVQLVESGGGVVQPGRSLRLSCAASGFSFSSHAMYWVRQAPGKGLEWVAIVSYDGSTKNYADSVKGRFTISRDNSKNTIYLHLNSLRAEDTAVYFCAREVDGIYGYLHYWGQGTLVTVSS
VL: EIVLTQSPATLSLSPGERATLSCRARQNVRNFLAWYQQKPGQAPRLLIYDASNRATDIPARFSGSGSGTDFTLTISSLEPEDFAVYYCQQRSYSITFGQGTRLEIK
B2: Z016 (MEX84_p2-55) (antibody, V domains shown)
VH: QVQLVQSGAEVKKPGASVKLSCKASGYTFTSYYVHWVRQAPGQGLEWMGIINPGNNFVSFAQNFYDRATMTRDTSTNTVYMELTNLQSEDTAVYYCARTLVAPSAQSMYYFDFWGQGTLVTVSS
VL: EIVLTQSPGTLSLSPGERGTLSCRASQYITTGHFAWYQQKPGRAPRLLIYGASVRATGVPDRFSGSGAETDFTLTISRLDPEDVGVYYCQQYGSSPVTFGPGTKVDIK
B3: Z007 (MEX105_50) (antibody, V domains shown)
VH: EVQLLESGGGLVRPGGSLRLSCTASGFTFRRYAMAWVRQAPGKGLEWVSLIYDGDDSTYYAKSVKGRFAISRDNSKNTLSLQMNSLRAEDTAVYYCVKDRDNGWSSIVDWGQGTLVTVSS
VL: DIQMTQSPSTLSASVGDRVTITCRASHSISGWLAWYQQKPGKAPKLLIYQASILESGVPSRFSGSGSGTEFTLTIGSLQPEDFATYFCQQYSTFWTFGQGTKVEIK
B4: Z008 (MEX105_60) (antibody, V domains shown)
VH: B3 VH with Y32F, Y52W, D53N, K62E, K65R, A69T, K76H, N84R, V93I
VL: B3 VL with H27Q, S28T, S30G, G31N, I53V, G76S
B5: Z009 (MEX105_64) (antibody, V domains shown)
VH: B3 VH with D53N, K62E, A69T, I70V, K76Q, V93I, K98R
VL: B3 VL with H27R, S28T, S30G, G31S, S56G, G66V, G76R
B6: Z055 (MEX84_p4-61) (antibody, V domains shown)
VH: EVQLVQSGAEVKKPGASVKVSCKASGYTFSGYYIHWLRQAPGQGLEWMGWINSNSGGADSGPRFHGRVTMTRDTSINTAYLELTNLRSDDTAVYYCARRTYYDTRFPYWYFDLWGRGTLVTVSS
VL: AIRMTQSPSSLSASVGDRVTITCRASQDIGSYLNWYQQKPGKAPNVLISAASTLQSGVPSRISGIGSGTDFTLTISSLQPEDFATYYCQQSLSAPYTFGQGTKLEIK
B7: Z059 (MEX84_p4-34) (antibody, V domains shown)
VH: EVQLVQSGAEVKTPGSSVKVSCKTSGGTFSNFAITWVRQAPGQGLEWMGGIIPLFGITNYTQKFQGRVTITTDESKTTAYMDLSGLRSEDTAVYFCARGRDSSGRLLDHWGQGTLVTVSS
VL: EIVMTQSPATLSVSPGERATLSCRASQTVNRNLAWYQQKPGQAPRLLIYAASARATGVPARFSGSGSGTEFTLTISSLQSEDFVVYYCQQYNNWPPLTFGGGTKLEIK
B8: Z005 (MEX18_13) (antibody, V domains shown)
VH: EVQLLESGGGLVQPGGSLRLSCAASGFTFSSYAMSWVRQAPGKGLEWVSSFSGIDDSTWYADSVKGRFTISRDNSKSTLYLQMNSLRAEDTAVYYCAKDRLVRGFAEVLDYWGRGTLVTVSS
VL: DIQMTQSPSSLSASVGDRVTITCRASQDISKYLAWYQQRPGKVPNLLIYTASTLQSGVPSRFSGSGSGTHFTLTISSLQPEDVATYYCQKYNSVPWTFGQGTKVEIK
B9: Z061 (BRA112_36) (antibody, V domains shown)
VH: EVQLVESGGGVVQPGRSLRLSCAASGFTFSISTIHWVRQAPGKGLEYVVVISHDGNTKYYADSVKGRFIISRDNSKNTVFLQMNSLRPVDTAVYYCARGEVGYFDLWGRGTLVTVSS
VL: EIVLTQSPATLSLSPGERATLSCRASQSVSSFLAWYQQKPGQPPRLLIYDASTRATGIPARFSGSGSGTDFTLTISSLEPEDFAVYYCQQRSNWPPITFGQGTRLEIK
B10: Z053 (BRA138_65) (antibody, V domains shown)
VH: QLQLQESGPGLVKPSETLSLTCTVSGGSISSYNYYWGWIRQPPGKGLEFIGSIYYTGSTYYNPSLRSRVTISVDTSKNQFSLKLTSVTAADTAVYYCARHGPGMGHNWYFDLWGRGTLVTVSS
VL: EIVLTQSPATLSLSPGERATLSCRASQSISSYLAWYQQKPGQAPRLLIYDASNRAPGIPARFSGSGSGTDFTLTISSLEPEDFAVYYCQQRSTWLTFGGGTKVEIK
B11: Z051 (BRA138_59) (antibody, V domains shown)
VH: QVQLQESGPGLVKPSQTLSLTCTVSGVSISSGGYYYSWFRQLPGKGLEWIGHIYYTGNTHYNPSLRSRLTISVDTSKNQFSLKLSSVTAADTARYYCARAWCEYAAYCWFDPWGRGTLVTVSS
VL: EIVLTQSPGTLSLSPGERATLSCRASQSVTSSYLAWYQHKPGQAPRLLIYGASSRAPGIPDRFSGSGSGTDFTLTISRLEPEDFAVYWCQQYGRSPFTFGQGTKLEIK
B12: Z056 (MEX84_p2-94) (antibody, V domains shown)
VH: EVQLVQSGAEVKKPGASVKVSCKASGNTFMGYYFHWVRQAPGQGLEWMGWINPNSGHANIAQTFQGRVTMTRDPSITTAYMELSRLRSDDTAVFYCARGGMLGQLWALDNWGQGTLVTVSS
VL: DIQMTQSPSTLSASVGDRVTITCRASQSISHWLAWYQQRPGEAPKLLIYQASTLESGVPSRFSGSGSGTEFTLSISSLQPDDFATYYCQQYQSSPYTFGQGTKLEIK
B13: Z002 (MEX18_27) (antibody, V domains shown)
VH: EVQLLESGGGLVQPGGSLRLSCATSGFTFSTYAMSWVRQAPGKGLEWVSSFSGVDDSTYYAESVKGRFTISRDNSKNTVYLQMTRLRAEDTAVYYCAKDRGPRGVGELFDSWGQGTLVTVSS
VL: DIQMTQSPSTLSASVGDRVTMTCRASQSINRWLAWYQQKPGKAPKLLIYTTSTLKSGVPSRFSGSGSGTEFTLTISSLQPDDFATYYCQHFHSVPWTFGQGTKVEIK
B14: Z003 (MEX18_58) (antibody, V domains shown)
VH: EVQLLESGGGLVQPGGSLRLSCATSGFTFTTFAMSWVRQAPGKGLEWVSSISGADDSTYYAASVKGRFTISRDNSRSTLFLQMNSLRAEDTAVYYCAKDRGPRGVGELFDSWGQGTLVTVSS
VL: B13 VL with M21I, N30S, R31K, K45R, H92F
B15: Z034 (BRA112_09) (antibody, V domains shown)
VH: EVQLLESGGGLAQPGGSLRLSCETSGFTFRSYGMGWVRQAPGKGLEWVSSIYISGDSTYYAASVKGRFTISRDNSKSTLYLQMDRLTAEDTAVYYCVRDRIQGGFGELYRYWGQGTLVTVSS
VL: B13 VL with I29V, R31K, T50E, T53I, K55E, P59S, F91Y, S93G, V94Y
B16: Z011 (MEX105_15) (antibody, V domains shown)
VH: EVQLLESGGGLVQPGGSLRLSCAASGFTFRTYAMSWVRQPPGKGLEWVSSISAREDSTYFAASVRGRFTISRDNSKNTLYLQMNNLRAEDTALYYCAKDRLQLGVGELYESWGQGTLVTVSS
VL: B13 VL with M21I, S28N, R31S, T50M, T51A, T53S, K55Q, I75V, F91Y, V94Y
B17: Z036 (BRA112_91) (antibody, V domains shown)
VH: EVQLLESGGDLVQPGGSLRLSCAASGFTFSTYGMAWVRQAPGKGLEWLSSISSVDDSKYYAASVKGRFTISRDNSRNTLYLHMNSLRVDDTAVYYCAKDRIPHGLGELYANWGQGTLVTVSS
VL: DIQMTQSPSTLSASVGDRVTITCRASQSISGWLAWYQQKPGKAPRLLMHKASNLYSGVPSRFSGSGSGTEFTLTISSLQPDDFATYYCQHYHSYPYTFGQGTKVEIK
B18: Z052 (BRA138_62) (antibody, V domains shown)
VH: QVQLQESGPGLVKPSQTLSLTCTVSGGSITGGVYYWNWIRHHPGKGLEWIGYMFYSGDTDYNPSLRSRVTISGDTSKNKFSLNLNSVTAADTAVYYCARAGFDYGSPVSAFDIWGQGTLVTVSS
VL: EIVLTQSPATLSLSPGERATLSCRASQSVSSTYLVWYQQKPGQAPRLLIYGASSRATGIPDRFSGSGSGTDFTLTISRLEPEDFAVYFCQQYAHSPRGYTFGQGTKLEIK
B19: Z050 (BRA138_28) (antibody, V domains shown)
VH: QVQLVQSGAEVKKPGSSVKVSCKAPGGTFSRYSIAWVRQAPGQGLEWMGGINPTFTTPNYAQKFQGRVTITADESTNTAYLDLSSLRSEDTAVYYCARFRYYYESGGYSDASPYYLDYWGQGTLVTVSS
VL: EIVLTQSPATLSLSPGERVTLSCRASQSVSSYLAWYQQKPGQAPRLLIYDASNRATGIPARFTGSGSGTDFTLTISSLEPEDFAVYYCQQRSNWPLTFGGGTKVEIK
B20: Z057 (MEX84_p4-54) (antibody, V domains shown)
VH: EVQLVQSGAEVKRPGASVKVSCKASGYTFADYYIHWVRQAPGLGLEWMGWINPKTGFSHYEQTFQGRVTMARDTSIPAAYMELSSLKSDDTAIYYCARGGRINVAEALRYWGQGSLVTVSS
VL: DIQMTQSPSTLSTFVGDRVTITCRASQTIGDWLAWYQQKPGKAPKLLISKATRLESGVPSRFSGSGSETEFSLTINSLQPDDVAAYYCQQYMSYPWTFGQGTKLEIK
B21: Z004 (MEX18_89) (antibody, V domains shown)
VH: EVQLLESGGGLVQPGGSLRLTCATSGFTFRDYAMSWVRQAPGKGLEWVSSYSGIDDSTYYADSVKGRFTISRDNSKSTLSLHMNSLRAEDSALYFCAKDRGPRGVGELFDSWGQGTLVTVSS
VL: B13 VL with M21I, N30S, R31K, H92Y

One experiment deals with T1, ZIKV envelope domain III ([..]), polyhistidine-AviTag, made in HEK-293-6E cells (Zika virus (KJ776791)). Description: ELISA on ZIKV EDIII (Table A). The following applies: remark: other sources report otherwise. (In general: ELISA stands for enzyme-linked immunosorbent assay.)
Consider B1, for which the EC50 (usually the concentration that produces a half-maximal response) was determined as 0.208 mg/L.

Molecule B2 had a concentration giving a half-maximal response (EC50) of 0.0724 mg/L. Still for that read-out and setting: next, B3: 0.0346 mg/L; B4: 0.0326 mg/L; B5: 0.0284 mg/L.

Consider B6, for which the concentration for a half-maximal effect (EC50) turned out to be 1.88 mg/L. Same read-out and setting: next, B7: 0.61 mg/L. Same read-out and setting: next, B8: 0.216 mg/L. The same measure, in the same setting: next, B9: 0.311 mg/L.

With B10, the EC50 is 1.68 mg/L. Take B11: the EC50 stood at 1.86 mg/L. B12: the EC50 amounted to 0.982 mg/L. Still for that read-out and setting: next, B13: 0.0252 mg/L; B14: 0.0255 mg/L. Turning to B15, the EC50 came to 0.0235 mg/L.

In the case of B16, the EC50 was 0.038 mg/L. Same read-out and setting: next, B17: 0.0172 mg/L; B18: 0.0131 mg/L. Still for that read-out and setting: next, B19: 0.0303 mg/L; B20: 0.0828 mg/L.

A further experiment concerns the target T1, ZIKV envelope domain III ([..]), …. In words: ELISA, biotinylated Z004 on ZEDIII, streptavidin-HRP. The following applies: remark: other sources report otherwise.
In the case of B21, the half-maximal effective concentration (EC50) was 0.16 mg/L.
